The values below come from patent US20240301052A1 (LANOVA MEDICINES DEVELOPMENT, published 2024).

Usually EC50 stands for the midpoint of the concentration-response curve. Read a high EC50 as weaker potency.

Read-outs that look alike come from different tables or passages of the source.

The target in assay [1] is T1, human SLC34A2 (human, UniProt O95436 1-690).
T1 construct: whole, on cells; also called human solute carrier 34 A2; NaPi2b
T1 sequence (looked up): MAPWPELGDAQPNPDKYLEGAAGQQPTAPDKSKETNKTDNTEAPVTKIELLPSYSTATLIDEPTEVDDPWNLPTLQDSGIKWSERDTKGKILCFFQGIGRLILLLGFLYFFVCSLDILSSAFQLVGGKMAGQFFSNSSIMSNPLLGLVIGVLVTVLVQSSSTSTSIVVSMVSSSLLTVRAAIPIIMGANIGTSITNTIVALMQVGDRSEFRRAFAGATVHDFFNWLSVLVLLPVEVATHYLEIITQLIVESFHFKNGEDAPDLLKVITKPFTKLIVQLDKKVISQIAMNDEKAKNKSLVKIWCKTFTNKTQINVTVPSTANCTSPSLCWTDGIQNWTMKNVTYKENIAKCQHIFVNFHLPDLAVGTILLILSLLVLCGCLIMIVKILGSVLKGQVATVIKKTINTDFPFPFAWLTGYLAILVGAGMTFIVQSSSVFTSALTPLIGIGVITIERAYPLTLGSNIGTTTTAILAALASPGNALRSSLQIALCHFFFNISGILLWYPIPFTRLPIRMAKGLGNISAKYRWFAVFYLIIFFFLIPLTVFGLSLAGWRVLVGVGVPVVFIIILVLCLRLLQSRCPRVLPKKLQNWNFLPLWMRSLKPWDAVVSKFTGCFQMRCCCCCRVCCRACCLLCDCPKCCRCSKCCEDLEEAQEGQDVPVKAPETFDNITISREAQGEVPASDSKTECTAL
Nature of the assay: FACS, OVCAR3 cells. Here is the method:
The binding of these humanized antibodies to OVCAR3 cells was evaluated as described above, and the results are shown in FIG. 12A-D and Tables 16A-D.
On the technique in general: Flow cytometry measures light scatter and fluorescence of single cells or particles in a stream.

The target of assay [2] is T1, human SLC34A2. Nature of the assay: FACS, OVCAR3 cells. The source holds these as a separate data set.
In another assay the target is T2, rat SLC34A2 (rat, UniProt Q9JJ09 1-695).
T2 construct: whole, on cells
T2 sequence (looked up): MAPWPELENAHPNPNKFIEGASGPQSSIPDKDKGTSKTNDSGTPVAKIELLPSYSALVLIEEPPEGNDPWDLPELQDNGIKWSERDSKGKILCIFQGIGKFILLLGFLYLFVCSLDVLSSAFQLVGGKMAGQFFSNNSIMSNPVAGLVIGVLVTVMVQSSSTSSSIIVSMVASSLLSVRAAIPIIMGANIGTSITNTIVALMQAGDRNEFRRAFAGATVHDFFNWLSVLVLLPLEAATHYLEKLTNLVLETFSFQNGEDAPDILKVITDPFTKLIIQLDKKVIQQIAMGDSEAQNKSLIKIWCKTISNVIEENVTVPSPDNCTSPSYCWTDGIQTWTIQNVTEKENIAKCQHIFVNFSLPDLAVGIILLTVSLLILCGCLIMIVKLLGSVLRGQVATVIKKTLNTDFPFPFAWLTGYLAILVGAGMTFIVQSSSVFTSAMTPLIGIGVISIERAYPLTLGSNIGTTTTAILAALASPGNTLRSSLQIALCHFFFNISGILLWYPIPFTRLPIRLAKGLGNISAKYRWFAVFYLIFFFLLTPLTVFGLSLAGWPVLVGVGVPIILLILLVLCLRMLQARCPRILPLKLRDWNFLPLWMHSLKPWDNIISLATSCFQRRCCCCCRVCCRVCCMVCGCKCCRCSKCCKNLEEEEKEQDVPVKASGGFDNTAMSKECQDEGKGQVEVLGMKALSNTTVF
The assay can be described thus: FACS, HEK293/Rat SLC34A2 cells.

In the next assay the target is T3, mouse SLC34A2 (mouse, UniProt Q9DBP0 1-697).
T3 construct: whole, on cells
T3 sequence (looked up): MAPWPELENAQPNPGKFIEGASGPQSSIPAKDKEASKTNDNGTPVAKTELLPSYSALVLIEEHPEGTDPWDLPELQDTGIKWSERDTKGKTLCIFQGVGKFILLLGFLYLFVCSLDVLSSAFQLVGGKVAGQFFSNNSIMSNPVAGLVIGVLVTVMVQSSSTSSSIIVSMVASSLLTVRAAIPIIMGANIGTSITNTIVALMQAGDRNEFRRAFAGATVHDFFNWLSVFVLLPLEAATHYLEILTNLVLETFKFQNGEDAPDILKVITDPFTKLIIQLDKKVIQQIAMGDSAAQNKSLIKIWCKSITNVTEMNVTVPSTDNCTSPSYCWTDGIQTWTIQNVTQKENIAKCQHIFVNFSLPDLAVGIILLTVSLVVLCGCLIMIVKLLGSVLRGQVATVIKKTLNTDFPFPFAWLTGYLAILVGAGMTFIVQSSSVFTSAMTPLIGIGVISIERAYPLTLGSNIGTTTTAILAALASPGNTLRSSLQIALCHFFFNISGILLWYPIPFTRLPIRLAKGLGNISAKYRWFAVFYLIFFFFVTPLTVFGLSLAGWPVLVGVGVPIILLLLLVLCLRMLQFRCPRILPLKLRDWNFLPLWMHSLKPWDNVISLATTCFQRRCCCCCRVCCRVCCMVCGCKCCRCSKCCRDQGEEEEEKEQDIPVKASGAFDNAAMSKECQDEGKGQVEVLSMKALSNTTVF
The assay can be described thus: FACS, HEK293/Mouse SLC34A2 cells.

Assay [3] deals with T1, human SLC34A2. The assay can be described thus: FACS, HEK293/human SLC34A2 cells.
Assay [4] addresses T1, human SLC34A2. The assay can be described thus: FACS, OVCAR3 cells. The method, boiled down:
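Flow cytometry binding: cells (OVCAR3, or HEK293 transfected with human SLC34A2) exposed 60 min at 4° C to chimeric hIgG1, 8-point 4-fold series starting 200 nM. Washed, stained 30 min at 4° C with fluorescent anti-human secondary, then analysed.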
The source holds these as a separate data set.

In assay [5] the target is T1, human SLC34A2. The assay can be described thus: FACS, OVCAR3 cells. The source holds these as a separate data set.
In assay [6] the target is T1, human SLC34A2. Nature of the assay: cell-based or functional assay.

B1: 62G10E4G8.p3.z15 hIgG1 (antibody, V domains shown)
VH: QVQLVQSGAEVVKPGASVKMSCKASGYTFPSYITHWVKQAPGQGLEWIGAIYPGNADTSYIQKFKGRATLTADKSTSTAYMELSSLRSEDTAVYYCARGTYGTSAWFTYWGQGTLVTVSS
VL: EIVLTQSPATLSVSPGERATLSCRARQNIGNNLYWYQQKPGQSPRLLIKYASQSISGIPSRFSGSGSGTDFTLTISSLQSEDFAVYFCQQSFSWPLTFGQGTKLEIK
notes: humanized hIgG1
For B1, the EC50 in the assay with human SLC34A2 [1] worked out at 3.76 nM; with human SLC34A2 [2], 3.8 nM; with rat SLC34A2, 4.04 nM; with mouse SLC34A2, 5.74 nM; in the assay with human SLC34A2 [3] it was 2.86 nM. For the same molecule, the “Top (MFI)” value in the assay with human SLC34A2 [1] stood at 27300 MFI.

B2: xi62G10E4G8 hIgG1 (antibody, V domains shown)
VH: QVQLQQSGAEVVKPGASVKMSCKASGYTFPSYITHWVKQTPGQGLEWIGAIYPGNGDTSYIQKFKGKATLTADKSSSTAYMQLSSLTSEDSAVYYCARGTYGTSAWFTYWGQGTLVTVSA
VL: DIVLTQSPATLSVTPGDSVSLSCRARQNIGNNLYWYQQKSHESPRLLIKYASQSISGIPSRFSGSGSGTDFTLTINSVETEDFGVYFCQQSFSWPLTFGAGTKLELK
notes: chimeric, hIgG1
For the molecule B2, the half-maximal effective concentration (EC50) was determined as 2.55 nM with human SLC34A2 [4], 5.8 nM with human SLC34A2 [5] and 3.73 nM in the assay with human SLC34A2 [1]. Moreover, the “Top (MFI)” value with human SLC34A2 [4] worked out at 43000 MFI; with human SLC34A2 [5] it was 71100 MFI; in the assay with human SLC34A2 [1], 27600 MFI. Also, the “cytotoxicity EC50” value with human SLC34A2 [6] was found to be 0.42 nM. Further, in the assay with human SLC34A2 [6], the “cytotoxicity Inhibition %” value was 97.2%.

B3: xi30H9B8F9 hIgG1 (antibody, V domains shown)
VH: QVQLQQPGAELVKPGASVKMSCKTSGYTFTTNNMHWVKQTPGQGLEWIGAIYPGNGATAYNQKFKGKATLTADKSSSTAYMQLSSLTSEASAVYYCARGMYGHGAMDYWGQGTSVIVSS
VL: DIVMTQSHKFMSRSVGDRVRITCKASQDVGTAVAWYQQKPGQSPKLLIYWATTRHSGVPDRFTGSGSGTDFIFTISNVQSEDLADYFCQQYSSNPLTFGAGTKLELK
notes: chimeric, hIgG1
In the case of B3, the EC50 amounted to 0.53 nM in the assay with human SLC34A2 [4], 1.1 nM with human SLC34A2 [5] and 1.19 nM in the assay with human SLC34A2 [1]. Besides, the “Top (MFI)” value in the assay with human SLC34A2 [4] came out at 41900 MFI; with human SLC34A2 [5] it was 69100 MFI; with human SLC34A2 [1] it was 29300 MFI. Further, the “cytotoxicity EC50” value with human SLC34A2 [6] was determined as 0.84 nM. In the assay with human SLC34A2 [6], the “cytotoxicity Inhibition %” value was determined as 91.7%.

B4: 63A11D5B4.p1.z9 hIgG1 (antibody, V domains shown)
VH: QVQLVQSGAEVVKPGASVKMSCKTSGYTFITYNMHWVRQAPGQGLEWIGAIYPGSGDTSYNQKFKGRVTLTADKSTSTAYMELSSLRSEDTAVYYCSISTIITTGAVDYWGQGTLVTVSS
VL: DIQMTQSPSSLSASVGDRVTITCKASQDVGTAVAWYQQKPGKVPKLLIYWTSTRHTGVPSRFSGSGSGTDFTLTISSLQPEDVATYYCQQYSRIPLTFGGGTKVEIK
notes: humanized hIgG1
As for B4, the concentration giving a half-maximal response (EC50) turned out to be 9.1 nM with human SLC34A2 [2], 3.04 nM in the assay with rat SLC34A2, 5.38 nM in the assay with mouse SLC34A2 and 5.87 nM with human SLC34A2 [3].

B5: 91C9F1.p1.z7 hIgG1 (antibody, V domains shown)
VH: QVQLVQSGAEVKKPGSSVKVSCKTSGFFFTEYIIHWVRQAPGQGLEWIGGIIPNNDVTNYKQNFRGRVTLTADKSTSTAYMELSSLRSEDTAVYYCARWRNAYYSAMDSWGQGTTVTVSS
VL: DIQVTQSPSSLSTSVGDRVTITCTASQDVGTAVAWYQQKPGKSPKLLIYWASTRHTGVPERFTGSGSGTDFTLTISSVQPEDVATYFCQQYRTSPLTFGVGTKVEIK
notes: humanized hIgG1
In the case of B5, the EC50 with human SLC34A2 [2] was 2.4 nM; with rat SLC34A2 it was 2.62 nM; with mouse SLC34A2 it was 3.34 nM; with human SLC34A2 [3] it was 2.72 nM.

B6: xi91C9F1 hIgG1 (antibody, V domains shown)
VH: EVQLQQSGPELVKPGTSVKISCKTSGFFFTEYIIHWVKQSHGRSLEWIGGIIPNNGVTNYKQNFRGKAALTADKSSNTAYMELRSLTSEDSAVYYCARWRNGYYSAMDSWGQGTSVTVSS
VL: DIVVTQSHKFMSTSLGDRVSITCTASQDVGTAVAWYQQKPGHSPKLLIYWASTRHTGVPERFTGSGSGTDFTLTITNVQSEDLADYFCQQYRTSPLTFGVGTKLELK
notes: chimeric, hIgG1
For B6, in the assay with human SLC34A2 [4], a half-maximal response (EC50) required 1.64 nM and the “Top (MFI)” value turned out to be 26400 MFI. In the assay with human SLC34A2 [5], the EC50 amounted to 1.6 nM and the “Top (MFI)” value amounted to 63300 MFI. In the assay with human SLC34A2 [6], the “cytotoxicity EC50” value came out at 0.8 nM and the “cytotoxicity Inhibition %” value is 97.4%.

B7: 30H9B8F9.p1.z5 hIgG1 (antibody, V domains shown)
VH: QVQLVQSGAEVKKPGASVKVSCKTSGYTFTTNNMHWVRQAPGQGLEWIGAIYPGSGATAYNQKFKGRVTMTADTSTSTVYMELSSLRSEDTAVYYCARGMYGHGAMDYWGQGTLVTVSS
VL: DIQLTQSPSFLSASVGDRVTITCKASQDVGTAVAWYQQKPGKAPKLLIYWATTRHSGVPSRFSGSGSGTEFTLTISSLQPEDFATYYCQQYSSNPLTFGQGTKLEIK
notes: humanized hIgG1
For B7, the half-maximal effective concentration (EC50) with human SLC34A2 [1] was determined as 1.43 nM; with human SLC34A2 [2], 0.9 nM; with rat SLC34A2, 1.81 nM; with mouse SLC34A2, 2.06 nM; with human SLC34A2 [3] it was 2.4 nM. Further, the “Top (MFI)” value with human SLC34A2 [1] is 26900 MFI.

B8: xi63A11D5B4 hIgG1 (antibody, V domains shown)
VH: QVQLQQPGAELVKPGASVKMSCRTSGYTFITYNMHWVKQTPGQGREWIGAIYPGNGDTSYNQKFKGKATLTADKSSSTAYMQLNSLTSEDSAVYYCSISTIITTGAVDYWGQGTSVTVAS
VL: DIVMTQSHKFMSTSVGDRVSITCKASQDVGTAVAWYQQKAGQSPKLLIYWTSTRHTGVPDRFTGSGSGTDFTLIIRSLQSEDLADYFCQQYSRIPLTFGSGTKLEIK
notes: chimeric, hIgG1
For the molecule B8, in the assay with human SLC34A2 [4], the concentration giving a half-maximal response (EC50) worked out at 3.85 nM and the “Top (MFI)” value is 43000 MFI. Further, in the assay with human SLC34A2 [5], the EC50 was 9.2 nM and the “Top (MFI)” value amounted to 78600 MFI. In the assay with human SLC34A2 [6], the “cytotoxicity EC50” value was found to be 0.66 nM and the “cytotoxicity Inhibition %” value worked out at 99%.
